In a protein production outcome set (Wang et al. 2014):

Experiment: label from the status in PepcDB records

Sequence | protein production
MLGSTDLVLLGKVVATHGIRGQLSVVPFSGEFSTILSMQTVYLSGPDNRKESFEVDRAAVHRNRVLLTLKGFANINEVLHLVGRELFARRDQFPPLDEGEFYWCDLIGLSVTTSEGLSLGRIEEIIATGSNDVYVVRDGEREYLIPALEDIVVGVDLDKGIMTVSPTEGLLDLLEHHHHHH | not failed
MLGTSFNNFGISLSHKRYFSGKVDEIIRCTMGKRIVKISSTKINTSILSSVSEQIGENITDWKNDEKKVYVSRVVNQCIDKFCAEHSRKIGDNLRKQIFKQVEKDYRISLDINAAQSSINHLVSGSSYFKKKMDELCEGMNRSVKNDTTSNVANLISDQFFEKNVQYIDLKKLRGNMSDYITNLESPFLEHHHHHH | failed
MLIAILLLLLSIFNIFIGKKVKDKNLAHLLSGFDKEKDDLEYVSSVLGNTFKWIGNLGVIITAIYLILINSISVGLYLICYVGVIILFTVNLTFKTDRHRRSKLKASK | failed
MLIALLLISYQLIKHGYRAADIKNLYTILEGEELRRQKDLSAKLRWGIVDEILWTIIVANGAILFTAHYVLIGLKILDLIAIFVVMLSGVMLYAPLAFLFLYPVVRAFEKNFPPSNPQFLLSHGLICTVSSLIVYEKLEQLWWDPLLVGFFWIAAGFVSFFTNRRFEVLVFLLLIAPLALLSVKCPGAILPILLAKSECSLRIQATFLVKLAVLIFASLAAVALVLQVFGYKSLRELSEKRKAAIKQGKYNPLRDPIIWIAWIMLTSLGLLIASFMERGEISPNML | failed
MLIATFFFTSHFSRAKQPMWYNGLLDLSVWQVIAVTLAMTHVTIVGVTVYLHRYSAHRSLELNAGLKHFFRFWLWLTTAQNTREWTAIHRKHHAKCETVDDPHSPVVKGLSTVLRKGAELYREEAQNQDTLRIYGKNCPEDWIERNLYSRYKMLGIVLMAVIDLALFGAIGITVWAIQMMWIPFWAAGVVNGLGHAVGYRNFECRDAATNLVPWGIVIGGEELHNNHHTYPNSAKLSVKPWEFDMGWAWIKLFSFLRLAKVQRVAPIAHRVEGKGHIDMDTAMAILNNRFQIMAQYRKLVIAPLVTQELAKADESVRHQFRRAKRLLSRETSLLDDKHHLRIQTMLEHSHALKVIYEKRLALQQIWVKTSSNGHDMLSAMKEWIHEAEASGIQSLREFADQLKTYSLRPVHA | failed
MLIAVPLDDTNFSENLKKAKEKGADIVELRVDQFSDTSLNYVKEKLEEVHSQGLKTILTIRSPEEGGREVKNREELFEELSPLSDYTDIELSSRGLLVKLYNITKEAGKKLIISYHNFELTPPNWIIREVLREGYRYGGIPKIAVKANSYEDVARLLCISRQVEGEKILISMGDYGKISRLAGYVFGSVITYCSLEKAFAPGQIPLEEMVELRKKFYRL | not failed
MLICNDKSNPKTLLEEIMALRPWRKGPFEISQIKIDSEWDSSIKWDLVKNATPLKDKVVADVGCNNGYYLFKMLEHGPKSLVGFDPGVLVKKQFEFLAPFFDKEKKIIYESLGVEDLHEKYPNAFDVIFCLGVLYHRKSPLEALKALYHALKIKGELVLDTLIIDSPLDIALCPKKTYAKMKNVYFIPSVSALKGWCERVGFENFEILSVLKTTPKEQRKTDFILGQSLEDFLDKTDPSKTLEGYDAPLRGYFKMLK | failed
MLIDSLHVSFDSFNFESILPMLVLVCGGIFTLLINAFTSRFSRNLNVFLCMLFLVLDFLVVLGLEEQENAFFGFLSLDTLSLISQSIVLISAFLLIFLALSKERFNEFQTAEFYSLYLFIVAGFQFMVSSNHLLLILIGLETASLPLCVLMALSDKRYGLEAGIKYFTMGAMASAFFAMGAMAFYLLTGSLNLEVITLYLHTEGITNPMLFAMGAIFLIGAIGFKVSLVPFHTWMPDVYEGNNPVFASYISIVPKIAGFVVATRLFGAFIDTRTAWVEDIFYVLILMTITIPNFIALWQEDVKRMLAYSSISHSGFALACVFIHTEDSQQAMFVYWFMFAFTYIGAFGLLWLLKSREKTWDERYDHPYSKFNGLIKTHPLVAILGAIFVFGLAGIPPFSVFWGKFLAVESALESNHILLAVVMLVNSAVAAFYYFRWLVAMFFNKPLQSYAQNDIYTQNATMPIYAVIIAMALACLFSVFMMRGLLEFVA | failed
MLIEILEFASILALVAVLTLTVMLQDIFFIDINKQYTETRIGTIIFSIRMLFGAWVIFVTETTIIAISKVTAIQLIILLLIWVCSKYVQKTRENWLITIVAFVIYGVGTYIYIQFAFKGY | failed
MLIGAIVAKDDTWLLWAIIIVWATVSLFLEQRYRWASTISGAIIALVGAMLLSNFKVIPMSAPVYDTVWDYIVPLSIPLLLFSSNILKIWKESRRLLVIFFVASIGTMIGTTVGFMILNQWIPYLNKIGAMMTGSYIGGGVNFAALSSKLETPSEMISSTVVADNSVMALYFMLLIALPSLPLIKKQFKSDYESKSTPESQQAYWEPKKIQLLDIAFSIASAVTLVAVSFKGADLIQQWMPQHNVVLTLIVSFLGDPYLLLTTLTLIVVAVWGDFFESLAGASEIGTFLIYIFFVVIGTPASFATIITTAPLLFIFVIIILVFNLGLSLIFGKIFGFKIEEILLASNATAGGPTTAAALAIGKGWTKVVGPILIIGTLGYVIGNYAGTLMYQLLTYLG | failed
MLIGEIMDLNLKNFLEDREEIIRDAKRKDEKSFKDFKKIVEEIKERENKDKIVCDFTEYNPLHKGHKYALEKGKEHGIFISVLPGPLERSGRGIPYFLNRYIRAEMAIRAGADIVVEGPPMGIMGSGQYMRCLIKMFYSLGAEIIPRGYIPEKTMEKVIDCINKGYHIQVKPYKIICIETGEILGEKLNIDNYVIASMSQMIYKLNREGLKFNPKFVFVKRLEGISGTKIREAIFSGKFEDIKNMLPKTTLSILKELYDNGKLNELILKRFEDRILETANEYDLYEYLPSNVAEILEKKRPFNNIEEIKNSLPYGFSRHFRERILSKLEARIPNETLSKYINNYPAKIKILAVKL | not failed
MLIINGKIIPIAHTICAFSAFFAALVTGYSLHFHKIVTNAHYTYPDEWFPSVSATIGDRYPERSIFQILIALTAFPRFLLLLGHYYLNQSKVCFLVGVLRTVSCGGWVYITSTDDHDIHDIFMITYIVLTLPWDIMITRYSSPLTSKNKGLTATIFFGTLFPMIYWYIQHSVQQRAGAYSIYAYFEWSLILLDIAFDAFAYADFKKIDIVLAFNEKPGNTSFFQIRDSSPINYGEEKSSELQKSGEKKVEKEKPVARSATGSYFRFDSFFYLLTNIFNGFLFWSNVTSLLCSIWHFPLWYMGISGYEAAILGYLGPIFLYLPFVSEAFTQYGVLLGGIIAIGAYIVQMPELRLISVAVGTSITVATFVQNLRYITNAETSFSFALTWLLGLVASVILKMGFYTNNPTWVILDERNGGYNKTALVLTVLFGMLSPYVNSINFEGKRNAQAKSASLIGKLFLAVGFGSLLFGIHQLLTDSSTTIYWAWEGYNESHGPLPWPWGALTCTVMLFASLSSVKFMGKPLVPCLLLLISTAVLSARSITQWPKYIFGGLLYAIAMLWLVPSYFSALGQVQNIWVYVLSFSVYIIFVLAHVWVVAYAFVPMGWVLREKIETVLAFSSTFIIIGALTCKNLNIQLVTMGKKFFIYVFFFAVALLSLTARFVYDIRPTGIPQPYHPDSQLITAGIWTIHFGLDNDMWASEDRMINLIKDMELDVVGLLETDTQRITMGNRDLTSKLAHDLNMYADFGPGPNKHTWGCVLLSKFPIVNSTHHLLPSPVGELAPAIHATLQTYNDTLVDVFVFHSGQEEDEEDRRLQSNYMAKLMGNTTRPAILLSYLVVDPGEGNYNTYVSETSGMHDIDPSDDDRWCEYILYRGLRRTGYARVARGTITDTELQVGKFQVLSEQALVEHSDSMYEYGHMSEPEYEDMKFPDKFLGEGERGHFYHVFDEPRYYL | failed
MLIKLRKQKQDENISFFSHFFAVFTGIFFVMTVIIIQVMHFGIYSSVDNSLKIATENVNDYVNMTLSHNNPITEAENGDASFKVKSNGQMAANTDTILYDKKHNVINNVNAFSSLYHIRPKLKDIGDIVEQEAKNIYGQTEKYRTVTVKVNNDFYPQIKFATIVINTTQLEEANTRYVTIIISVMIVFWLISVIASVYLAKWSQKPILENYEKQKSFVENASHELRTPLAVLQNRLESLFRKPEATILDSSESIASSLEEVRNMRMLTANLLNLARRDDGIKPEITEIQPRFFDDTFKNYEMIARENGKKLHIINKVNRQIKTDKTLLKQLMTILFDNAVKYTDNDGEIWLDVKTTDRSLIFSVADNGQGISDEDKKKIFDRFYRVDKARTRQKGGFGLGLSLAKQITDSLKGSIIVKDKKPQGVMFEARLLANK | failed
MLILAIPGYIYYHQQQEQAANQQLGQILPVYEQGNFQQALDGTGDRAGLLAIADDYGGTDAGNLATFYAANALYQRDEYDRALTYYQRFEKEKDFIGASAYAAQAAIQETRGSFERAGGLYEQAASQYQNKLTAPRYLLNAGQAYEEAGQYEAAIGVYERIQEEYPDSEQASNAERYLARAKVHQGSTSSS | failed
MLIRRKIMQYNDMSKEELLVLKESLNKEYAEAKAKGLALDMSRGKPSAKQLDVSLGLLDTINSSSDLKSLDGTDCRNYGVLDGIPEAKKLMADMMGTTPDHVIVYGNASLNIMYDQISRAYTHGILGNTPWCKLDKVKFLCPVPGYDRHFAITERFGIEMINIPMSESGPDMGMVEEYVSKDASVKGIWCVPKYSNPQGYTYSEETVKRMAALKPAAEDFRIFWDNAYVIHDLYDDNKDEIADIISECEKAGNPDMVFEFASTSKVSFPGSGIAALATSANNIADIKKQLTIQTIGHDKLNQLRHVRFFKDINGLKEHMRKHAEFIRPKFEAVESVLEEELSGLGIGSWTEPKGGYFISFDAMDGCAKAIVAKCKEAGVKLTGAGATFPYGKDPKDSNIRIAPSFPTPEEMKQAADLFVLCVKLVSVEKLLENK | failed
MLITLPYFLTRKTLPGYIIGGDTLVHAAIARGIYLGRNPFLDQTYNVYPSWYPFLYHLIVAVTSKVFQISIEGAMLLLQATLAILGCIVFFYVAKNLWGSTAGIMAMAFSLMFLPFHRYPNPKELIPIFGALFILYFVKERWVLSGIILGLGLWSHYASMFPLFVLPLTVYIFTRRKEVITPLLISTIVFLPFAINIISHADHIIPKVEDIYAFWKTDTLEKKLLSLLPPIYLVPFLLLSLYKFYKRRDYEGTVLFLSVVTIWGLRLLPESLKPFGIQIWSTRFTVPLPTIYLLLSAYGISEIKITSKDIKTIFLGILLFLIPIASALNFWEAIKRDPFIWVSEFELKEYFPEEHFIEVSEWIKANTERDNLIATSEEAGMMINALTGRPIMATLYGHGNTFLDNEIRRKDLELLFTADCKEKAKIISKYKIKYIVLDTFVYKRWEVKDMSCIAEPVYKVENVTILRVNLNITYTNKGEIRMNKKLFWLLLIAFVVNFSVIYGRKNPCWRKWRRYDNSHGHD | failed
MLIVGLNGSPKKDGNTAFLVREGLAAAAAAGAETALIHIADAMADQKIPYCTQCSNPCQGACSRHNRLGEAFDLLRRADGLLLGSPVYFGSVSAQLKAFWDKSRILRKEKALLNVVGAGVTVGGARFGGQETTMKALFDMMLVQGMILVGDGHTEADCGHQGSCGQAPASSDEFAIRRVRLAGRRLAEVAAATMTLRRHRA | failed
MLIVNREEYSKSDFDLRLQAYEEMEQFQEAAGNRFALCLKDPFDIITLVFFLKEKKSSVLLIHEDTPKETAIEMAKRANCIGILYGENSDFTKLEAVNYLAEEPSLLQYSSGTTGEPKLIRRAWTEVDTEIKVYNEALNCDIDEVPIVMAPVSHSYGLICGTLSAITRGSKPIIITNKNPKFALNIVRNTEKHIVYAVPLMLHIMGSFPQGTFQFHKIMTSGAPLPEALFYKLKETTTYMMQQYGCSEAGCISICHDMKSHLDLGNPLPHASISIGSDENAPEEIIVKMNDKEIFTKDLGYKSERGLHFMGRMDDVINVSGLKVFPIEVEETMLRLEGVQEAIVYRGKHPVMGEIVKAKVISHIDPVQIREWCMQHLPSYKVPHEIESVTEIPKNKTGKVSRKLLEMGEVTT | failed
MLKDQANQLEFPRDFLGISLADQPNKYYFIIRTQRIVLEADSSIQLIMEKLQSYKSKVALYFDGFQYQLGDFRLRVGKVVPTHSENVRGIVMEVEYLPISSMEKAQKVMEEFLEIWNEALAKRSLPGKFVNIDLNFGEFGLGDIYTPQHTAVRYALVMAHMIATVQAVRG | failed
